Measured values published in patent US20230203142A1, “TREATMENT OF METABOLIC DISORDERS THROUGH THE TARGETING OF A NOVEL CIRCULATING HORMONE COMPLEX” (The President and Fellows of Harvard College, priority 2020, published 2023).

What was measured:
[1] = tested on: diet-induced obese (DIO) mice; experiment: a-Ab treatment of diet-induced obese mice; type: in vivo, mouse
Description: Given the essential role for appropriate beta cell function and insulin secretion in the pathogenesis of diabetes, the pancreata of FABP4 deficient (FABP4^−/−) mice were examined for beta cell mass and insulin content. Animal care and experimental procedures were performed with approval from animal care committees of Harvard University. All mice were housed on a 12-hour light/dark cycle with ad libitum access to chow (PicoLab 5058 LabDiet) and water. FABP4−/− and WT mice were littermates obtained from heterozygous breeding. High fat diet (HFD) fed mice were provided ad libitum access to HFD (60% kcal from fat; Research Diets Inc., D12492i) for 14 weeks beginning at 4 weeks of age. Pancreata and isolated islets were obtained from 7-8-week-old male mice. Blood was collected every other week for 6 hour fasting plasma insulin and FABP4 levels. For acute FABP4 treatment, 10 μg of human recombinant FABP4 (produced in-house) or sterile PBS was injected intraperitoneally. Blood was collected from the tail vein at 0, 10, 20, 30, 60, 120, 240- and 360-minutes post injection for measurement of blood glucose, plasma insulin, and FABP4 levels.
(§1) For the immunohistochemistry, pancreata were dissected and fixed in 10% zinc buffered formalin for 24-48 hrs before being washed and stored in 70% ethanol. Samples were paraffin embedded, and sectioned in steps 250 μm apart. Immunostaining for insulin and glucagon was performed as described previously (Prentice et al., 2014; Rezania et al., 2014). Images of each section were acquired using Aperio Imagescope at 20× magnification. The beta- or alpha-cell area was calculated by using positive pixel count analysis (Aperio ImageScope). Islet number and size was determined by manually circling insulin positive clusters in the Aperio ImageScope software. Two blinded individuals independently performed manual analysis and insulitis scoring.
Antibodies were stored at 4° c. at a stock concentration of 10 mg/ml in PBS. WT diet-induced obese (DIO) male mice were treated twice weekly with 33 mg/kg bodyweight of a-Ab or control antibody (c-Ab) in a final volume of 150 μl, injected subcutaneously for 3 weeks after 12 weeks of high fat breeding, as described (see US20160319003, incorporated herein by reference, and Burak et al., 2015). […] Glucose tolerance test were performed as previously described (Liu, Y. et al. Cell Rep 14, 2889-2900). Briefly, both chow and high fat diet fed mice were evaluated simultaneously. Before intraperitoneal glucose tolerance tests, mice were fasted 16 hr. overnight, before injection of 0.75 g/kg body weight of glucose. Blood glucose was evaluated at 0, 15, 30, 45, 60, 90, and 120-min post-injection.
as §1, with “Pancreata were” for “For the immunohistochemistry, pancreata were”, “for insulin, glucagon, BrdU” for “for insulin”, “and Cleaved Caspase 3” for “and glucagon”

NOD mice = experiment: a-Ab treatment in NOD model of T1D; type: in vivo, mouse
Description: WT female NOD mice matched for age, weight, blood glucose, plasma insulin, and circulating FABP4 levels were utilized to explore the effect of antibody-mediated FABP4 targeting in the context of T1D, (FIGS. 2D-G). Mice were treated twice weekly with a-Ab, PBS, or a control antibody of the same isotype (c-Ab) starting at 10 weeks of age, when insulitis had already been established. […] Collectively, a-Ab-mediated protection against T1D and improvement of glycemic control in a DIO model of T2D are both associated with improved beta cell mass and function.
To investigate the contribution of proliferation to the increase in beta cell mass, NOD mice were treated with BrdU along with a-Ab, c-Ab, or PBS for 5 weeks beginning at 10 weeks of age. […] This difference is likely associated with the pro-proliferative environment of DIO as compared to the NOD model. […] Thus, targeting the FABP4-ADK-NDPK complex with a-Ab preserves beta cell mass and enhances beta cell function to protect against diabetes.
as §1, with “Pancreata were” for “For the immunohistochemistry, pancreata were”, “for insulin, glucagon, BrdU” for “for insulin”, “and Cleaved Caspase 3” for “and glucagon”

[2] = among the mice that developed diabetes

B1: a-Ab: monoclonal antibody previously reported as CA33; heavy chain SEQ ID NO 446, light chain SEQ ID NO 447; binds FABP4 and NDPK (antibody, listed as Homo sapiens)
heavy: QSVEESGGRLVTPGTPLTLTCTVSGFSLSTYYMSWVRQAPGKGLEWIGIIYPSGSTYCASWAKGRFTISKASTTVDLKITSPTTEDTATYFCARPDNDGTSGYLSGFGLWGQGLVTVSSAKTTPPSVYPLAPGSAAQTNSMVTLGCLVKGYFPEPVTVTWNSGSLSSGVHTFPAVLQSDLYTLSSSVTVPSSTWPSETVTCNVAHPASSTKVDKKIVPRDC
light: DVVMTQTPASVSEPVGGTVTIKCGASEDISRYLVWYQQKPGQPPKRLIYKASTLASGVPSRFKGSGSGTDFTLTISDLECDDAATYYCQCTYGTYAGSFFYSFGGGTEVVVERTDAAPTVSIFPPSSEQLTSGGASVVCFLNNFYPKDINVKWKIDGSERQNGVLNSWTDQDSKDCTYSMSSTLTLTKDEYERHNSYTCEATHKTSTSPIVKSFNRNEC
- beta cell proliferation, Ki67 staining ([1]; DIO model, three weeks): small but significant increase
- CC3 positive beta cells ([1]; DIO model, vs controls): profound reduction
- glycemic excursion during glucose tolerance test (GTT) ([1]; WT DIO mice, 33 mg/kg twice weekly s.c.): improved
- 6 hr fasting glucose levels ([1]; WT DIO mice, 33 mg/kg twice weekly s.c., three weeks): reduced
- beta cell mass ([1]; pancreata of DIO mice, 3 weeks): trend towards increased
- number of islets ([1]; pancreata of DIO mice, 3 weeks): increased
- glucagon positive area ([1]; pancreatic sections, DIO mice): significant reduction
- overall number of BrdU positive beta cells (NOD mice; NOD mice, 5 weeks, compared to c-Ab): no significant difference
- islet number and beta cell mass (NOD mice; NOD mice, compared to c-Ab-treated controls): significant increase
- CC3 positive beta cells (NOD mice; NOD model, vs controls): profound reduction
- blood glucose (NOD mice; [2]): significantly reduced
- plasma insulin levels (NOD mice; [2]): higher
- body weight, plasma insulin, or blood glucose levels (NOD mice; among the non-diabetic mice, throughout the study): no significant differences
- development of T1D (NOD mice; female NOD mice, twice weekly from 10 weeks of age): significantly protected
- GSIS both in vivo and ex vivo (NOD mice; non-diabetic NOD mice): improved
- glycemic control during GTT (NOD mice; non-diabetic NOD mice): improved
- glucagon positive area (NOD mice; pancreatic sections, NOD mice): significant reduction
